Here are results for one variant from publication PMC6826516.

B1: LgBiT-TEAD1-Myc (TEAD1 aa 194-411), wild type [not stated] / SmBiT-TAZ-Flag (TAZ aa 13-119), wild type [not stated] (parent)
chain 1: PGQQVIHVTQDLDTDLEALFNSVMNPKPSSWRKKILPESFFKEPDSGSHSRQSSTDSSGGHPGPRLAGGAQHVRSHSSPASLQLGTGAGAAGSPAQQHAHLRQQSYD
chain 2: RSIGTTKLRLVEFSAFLEQQRDPDSYNKHLFVHIGHANHSYSDPLLESVDIRQIYDKFPEKKGGLKELFGKGPQNAFFLVKFWADLNCNIQDDAGAFYGVTSQYESSENMTVTCSTKVCSFGKQVVEKVETEYARFENGRFVYRINRSPMCEYMINFIHKLKHLPEKYMMNSVLENFTILLVVTNRDTQETLLCMACVFEVSNSEHGAQHHIYRLVKD

This assay covers variants of B1. Kind of assay: NanoBiT assay (split-luciferase biosensor) in lysates of transfected HEK293T cells. The conditions noted are these: with SmBiT-TAZ-Flag (TAZ aa 13-119), 48 h after transfection, equal amounts of each biosensor plasmid, read off a plot.
Consider chain 2 E47A V49A I54A, for which the response (fold over LgBiT-TEAD1 alone) came to 37.
